B1: 1D11.16 murine pan-specific anti-TGFβ monoclonal antibody (antibody, from another filing, V domains shown)
VH: QVQLQQSGPELVRPGASVKLSCKASGYIFITYWMNWVKQRPGQGLEWIGQIFPASGSTNYNEMFEGKATLTVDTSSSTAYMQLSSLTSEDSAVYYCARGDGNYALDAMDYWGQGTSVTVSS
VL: DIVLTQSPASLAVSLGQRATISCRASESVDSYGNSFMHWYQQKSGQPPKLLIYLASNLESGVPARFSGSGSRTDFTLTIDPVEADDAATYYCQQNNEDPLTFGAGTKLEIK
B2: PET1074B9 germlined IgG4 (antibody, V domains shown)
VH: QVQLVQSGAEVKKPGSSVKVSCKASGYTFSSNVISWVRQAPGQGLEWMGGVIPIVDIANYAQRFKGRVTITADESTSTTYMELSSLRSEDTAVYYCALPRAFVLDAMDYWGQGTLVTVSS
VL: ETVLTQSPGTLSLSPGERATLSCRASQSLGSSYLAWYQQKPGQAPRLLIYGASSRAPGIPDRFSGSGSGTDFTLTISRLEPEDFAVYYCQQYADSPITFGQGTRLEIK

Target: Recombinant human TGFβ1 (human, UniProt P01137 279-390)
Assay: cell-based or functional assay

Recombinant human TGFβ1, sequence (P01137 279-390 limits assumed): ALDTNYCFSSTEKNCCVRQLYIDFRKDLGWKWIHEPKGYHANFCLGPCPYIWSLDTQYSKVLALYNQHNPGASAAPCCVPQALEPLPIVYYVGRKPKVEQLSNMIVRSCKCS

| Binder | % neutralisation at 91 pM antibody, MLEC proliferation assay [%] | Geometric Mean IC50, MLEC proliferation assay (n = 6; full dose response curve not obtained) [nM] |
| --- | --- | --- |
| B1 | 12 | – |
| B2 | – | < 1 |

— patent publication US20060251658A1 (Sanofi, published 2006)
